Target: 人PD-1 (程序性死亡受体1) (human) (UniProt Q15116)
Assay: flow cytometry receptor occupancy on patients' peripheral blood T lymphocytes (CD45RA-); bound toripalimab detected with PE-labelled anti-human IgG4 Fc, total PD-1 after saturation with toripalimab; dose groups 1, 3 and 10 mg/kg Q2W

UniProt Q15116, sequence (Q15116 25-288): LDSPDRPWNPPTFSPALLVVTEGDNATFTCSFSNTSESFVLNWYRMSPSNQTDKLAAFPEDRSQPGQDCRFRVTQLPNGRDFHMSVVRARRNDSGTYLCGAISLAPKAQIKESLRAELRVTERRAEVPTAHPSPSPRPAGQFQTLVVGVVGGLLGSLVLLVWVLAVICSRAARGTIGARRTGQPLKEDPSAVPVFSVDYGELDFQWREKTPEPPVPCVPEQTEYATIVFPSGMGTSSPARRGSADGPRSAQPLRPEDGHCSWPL

For 特瑞普利单抗(Toripalimab) (antibody), the PD-1受体占位率(RO) was > 80%.
